Assay results taken from patent publication US20060286112A1 (published 2006).

Tests used:
[1] = biological target: T1, human VLA-1 α1 subunit (CD49a), full-length, on transfected CHO cells (human, UniProt P56199 29-1179); assay: cell-based or functional assay
[2] = biological target: T1, human VLA-1 α1 subunit (CD49a), …; assay: cell-based or functional assay; remark: listed apart in the source
[3] = biological target: T2, human VLA-1 (alpha 1/beta 1, CD49a/CD29) on IL-2 stimulated human PBMC / T cells (human, UniProt P56199 29-1179; P05556 21-798); assay: cell-based or functional assay
[4] = biological target: T2, human VLA-1 (alpha 1/beta 1, …); assay: cell-based or functional assay; remark: listed apart in the source
[5] = biological target: T2, human VLA-1 (alpha 1/beta 1, …); assay: cell-based or functional assay; remark: listed apart in the source
[6] = biological target: T3, human CD49a I domain I11F (human, UniProt P56199 151-364, I11F); assay: ELISA on secreted mutant I domain
T3 construct: domain: I domain; not shown: myc and His tags

[7] = biological target: T4, human CD49a I domain E48K (human, UniProt P56199 151-364, E48K); assay: ELISA on secreted mutant I domain
T4 construct: domain: I domain; not shown: myc and His tags

[8] = biological target: T5, human CD49a I domain E66A (human, UniProt P56199 151-364, E66A); assay: ELISA on secreted mutant I domain
T5 construct: domain: I domain; not shown: myc and His tags

[9] = biological target: T6, human CD49a I domain K88N (human, UniProt P56199 151-364, K88N); assay: ELISA on secreted mutant I domain
T6 construct: domain: I domain; not shown: myc and His tags

[10] = biological target: T7, human CD49a I domain with residues 91-96 VQRGGR replaced by mouse GRRGGL (human, UniProt P56199 151-364, V91G; Q92R; R96L); assay: ELISA on secreted mutant I domain
T7 construct: domain: I domain; also called V91G, Q92R, R96L; not shown: myc and His tags

[11] = biological target: T8, human CD49a I domain K142Q (human, UniProt P56199 151-364, K142Q); assay: ELISA on secreted mutant I domain
T8 construct: domain: I domain; text prints KI42Q once; not shown: myc and His tags

[12] = biological target: T9, human CD49a I domain S162H (human, UniProt P56199 151-364, S162H); assay: ELISA on secreted mutant I domain
T9 construct: domain: I domain; not shown: myc and His tags

[13] = biological target: T10, human CD49a I domain T204A (human, UniProt P56199 151-364, T204A); assay: ELISA on secreted mutant I domain
T10 construct: domain: I domain; not shown: myc and His tags

[14] = biological target: T2, human VLA-1 (alpha 1/beta 1, …); assay: cell-based or functional assay; remark: listed apart in the source

| Binder | relative inhibition at an optimal concentration, CHO-VLA-1 adhesion to collagen IV [1] [%] | IC50, adhesion of CHO-VLA-1 cells to collagen IV [2] [nM] | % adhesion of IL-2 activated T cells to collagen IV vs no antibody, 10 µg/ml, +PMA [3] [%] | % adhesion of IL-2 activated T cells to collagen IV vs no antibody, 10 µg/ml, -PMA [3] [%] | % adhesion of T cells to collagen IV vs no antibody, 0.5 nM mAb, no PMA [4] [%] | % adhesion of T cells to collagen IV vs no antibody, 5 nM mAb, no PMA [4] [%] | % adhesion of T cells to collagen IV vs no antibody, 0.5 nM mAb, 10 ng/ml PMA [5] [%] | % adhesion of T cells to collagen IV vs no antibody, 5 nM mAb, 10 ng/ml PMA [5] [%] | binding result [6] | binding result [7] | binding result [8] | binding result [9] | binding result [10] | binding result [11] | binding result [12] | binding result [13] | T cell adhesion to immobilized collagen IV, relative estimated IC50 [14] [nM] |
| --- | --- | --- | --- | --- | --- | --- | --- | --- | --- | --- | --- | --- | --- | --- | --- | --- | --- |
| 2.7 (antibody, V domains shown, human IgG2 or IgG4; also called antibody 2.7) VH: EVQLVESGGGLVKPGGSLRLSCAASGFTFSNAWMSWVRQAPGKGLEWVGRIKRKTDGETTDYAAPVKGRFTISRDDSRNTLYLQMNSLKTEDTAVYYCTIYTYYYGMDVWGQGTTVTVSS VL: DIQMTQSPSSLSASVGDRVTITCRASQSINNYLNWYQQKPGKAPKLLIYAASSLESGVPSRFSGSGSGTDFTLTISSLQPEDFATYYCQQSYSTPPTFGQGTKVEIK | > 80 | 0.08 | 18 | 30 | 33.5 | 12.1 | 85.4 | 34.8 | binds | binds | no binding | binds | no binding | binds | binds | binds | – |
| 7.11 (antibody, V domains shown) VH: QVQLQESGPGLVKPPETLSLTCTVSGGSISSHYWSWIRQPAGKGLEWIGRIYTSGSTNYNPPLKSRVTMSVDTSKNQFSLKLSSVTAADTAVYYCAREGYDFWSGYYNYYYGMDVWGQGTTVTVS VL: EIVLTQSPGTLSLSPGERATLSCRASQSVISSYLAWYQQKPGQAPRLLIYGASSRATGIPDRFSGSGSGTDFTLTISRLEPEDFAVYYCQQYGSAFTFGGGTKVEIK | – | – | – | – | – | – | – | – | – | – | – | – | – | – | – | – | > 5 |
| 6.17 (antibody, V domains shown, human IgG2 or IgG4) VH: EVQLVQSGAEVKKPGESLRISCKGSGYSVSSYWIGWVRQMPGKGLEWMGIIYPGDSDTRYSPSFQGQVTISADKSISTAFLQWISLKASDTAMYYCARLQGDCSGGSCYGHFDYWGQGTLVTVS VL: EIVLTQSPGTLSLSPGERATLSCRASQTISSGYLAWYQQKPAQAPRLLIYVASRRATGIPDRFSGSGSGTDFTLTISRLEPEDFAVYYCQQYGSSSWTFGQGTTVEIK | > 80 | 0.27 | 22.5 | 64.1 | 76.3 | 22.3 | 93.7 | 63.7 | binds | binds | binds | binds | no binding | binds | no binding | binds | – |
| 6.18 (antibody, V domains shown, human IgG2 or IgG4) VH: EVQLVQSGAEVKKPGESLRISCKGSGYSVTSYWIGWVRQMPGKGLEWMGIIYPGDSDTRYSPSFQGQVTISADKSISTAYLQWSSLKASDTAMYYCARLQGDCSGGTCYGHFDYWGQGTLVTVS VL: EIVLTQSPGTLSLSPGERATLSCRASQSVSSSYLAWYQQKPAQAPRLLIYVASRRATGIPDRFSGSGSGTDFTLTISRLEPEDFAVYYCQQYGTSSWTFGQGTTVEIK | > 80 | 0.19 | 31.2 | 58.5 | 85 | 19.7 | 98.4 | 55.5 | binds | binds | binds | binds | no binding | binds | no binding | binds | – |
| 3.40 (antibody, V domains shown, human IgG2 or IgG4) VH: QVQLVESGGGVVQPGRSLRLSCAASGFTFSTYGMHWVRQAPGKGLEWVAVIWYDGSKKYYADSVKGRFAISRDNSKNTLYLQMNSLRAEDTAVYYCARDHTMVRGVINSYYYGMAVWGQGTTVTVSS VL: SYELTQPPSVSVSPGQTASITCSGDRLGNKYACWYQQKTGQSPVLVIYQDSKRPSGIPERFSGSNSGNTATLTISGTQAMDEADYYCQAWDSSTVVFGGGTKLTVL | – | 1.3 | – | – | – | – | – | – | binds | no binding | binds | binds | binds | binds | binds | binds | > 5 |
| 10.1 (antibody, V domains shown) VH: QVQLQQSGPGLVKPSETLSLTCTVSGASISSYYWSWIRQPAGKGLEWIGRIYASGSTNYNPSLKSRVTMSVDTSKSQFSLNLSSVTAADTAVYYCAREGWERLQDYYYYGLDVWGQGTTVTVSS VL: EIVLTQSPGTLSLSPGERATLSCRASQSVSRNYLAWNQQKPGQAPRLLIYGASSRATGIPDRFSGSGSGTDFTLTISRLEPEDFAVYYCQQYGSSPLTFGGGTKVEIK | – | 1 | 38.4 | 40.9 | 101 | 76.6 | 96.7 | 86.8 | – | – | – | – | – | – | – | – | > 5 |
| 2.19 (antibody, V domains shown, human IgG2 or IgG4) VH: QVQLQESGPGLVKPSETLSLTCTVSGDSISSYYWSWIRQPPGKGLEWIGYVYYSGSTNYNPSLKSRVTMSVDTSKNQFSLKLSSVTAADTAVYYCARDLELYAFDIWGQGTMVTVSS VL: EIVLTQFPGTLSLSPGERVTLSCRASQSVSSTYVVWYQQKPGQAPRLLIYGASSRATGIPDRFSGSGSGTDFTLTISRLEPEDFAVYYCQQHGSSPWTFGQGTKVEIK | > 80 | 0.47 | – | – | – | – | – | – | binds | binds | no binding | binds | no binding | binds | binds | binds | – |
| 6.44 (antibody, V domains shown, human IgG2 or IgG4) VH: QVQLQESGPGLVKPSQTLSLICTVSGGSISRGDSYWSWIRQHPGKGLEWIGYIYYSGSTFYNPSLKSRVTISVDTSKNQFSLKLSSVTAADTAVYYCAREDRIFGVVDYWGQGTLVTVSS VL: not shown | > 80 | 0.08 | 23.7 | 49.2 | 70.7 | 25 | 89.8 | 56.6 | binds | binds | binds | binds | no binding | binds | binds | binds | – |
